Experimental data published in article doi:10.1101/2020.10.05.326595 (bioRxiv, 2020).

Experiments:
[1] = molecular target: the molecule itself; assay: crystal structure
[2] = molecular target: the molecule itself; assay: SEC-SAXS

B1: ZTL G46A:G80R (LOV domain construct, residues 29-165) (domain or fragment, UniProt Q94BT6 29-165, looked up)
chain: GGPIPYPVGNLLHTAPCAFVVTDAVEPDQPIIYVNTVFEMVTGYRAEEVLGRNCRFLQCRGPFAKRRHPLVDSMVVSEIRKCIDEGIEFQGELLNFRKDGSPLMNRLRLTPIYGDDDTITHIIGIQFFIETDIDLGP
binding result [1]: binds

B2: ZTL G46S:G80R (LOV domain construct, residues 29-165) (domain or fragment, UniProt Q94BT6 29-165, looked up)
chain: GGPIPYPVGNLLHTAPCSFVVTDAVEPDQPIIYVNTVFEMVTGYRAEEVLGRNCRFLQCRGPFAKRRHPLVDSMVVSEIRKCIDEGIEFQGELLNFRKDGSPLMNRLRLTPIYGDDDTITHIIGIQFFIETDIDLGP
stoichiometry N [2]: 2
